Columns and labels:
[1] = system: PC-3luc cells; assay: PC-3luc cell proliferation / cytotoxicity in vitro (MTT); format: cell-based, human; details: G-CSF, 96 hours, three concentrations
Description: A cell proliferation assay was performed on human PC-3 prostate tumor cells after 96 hours of treatment by G-CSF at three different concentrations by comparison with human leukemic cells (HL-60 and U937). Cell proliferation was quantified by a cell viability assay using MTT (3-[4,5-dimethylthiazole-2-yl]-2,5-diphenyltetrazolium bromide (Sigma). The percentage of viable cells was calculated by comparing the optical density (OD) of the treated samples with those incubated with vehicle. Methods were carried out as described by Magnon, et al., Cancer Res, 65, 4353-61 (2005); incorporated herein by reference in its entirety.

[2] = system: PC-3luc cells; assay: Xenogeneic orthotopic PC-3luc prostate tumor model in nude mice (bioluminescence, immunofluorescence); format: in vivo, Balb/c nu/nu mice
Description: The microenvironment of a developing tumor is important in cancer development and metastasis. A xenogeneic orthotopic model of prostate cancer was established to provide a minimally disruptive microenvironment for this cancer in live mice.
In vivo and ex vivo bioluminescence imaging was performed and analyzed using an IVIS imaging system 200 series (Xenogen, Caliper Life Sciences, Hopkinton, Mass.). Bioluminescent signal was induced by i.p. injection of D-luciferin (150 mg/kg in PBS) 8 minutes prior to in vivo imaging. For ex vivo imaging, D-luciferin (300 mg/kg) was injected 7 minutes prior to necropsy. Organs of interest were immersed in a solution of D-luciferin at 150 mg/ml.
(§1) Upon sacrifice, mouse prostate tissues were immersed in OCT medium (Tissue Teck®). Five-micrometer frozen sections were stained with hematoxylin-eosin (H&E). For immunofluorescence, unstained prostate sections were fixed with acetone or methanol. For staining of nerves, fixed sections were incubated in H2O2 to quench endogenous peroxidase and non-specific binding was blocked with goat serum in bovine serum albumin (BSA) solution and the avidin/biotin blocking kit (Vector Laboratories, Burlingame, Calif.). Sections were incubated with a rabbit anti-TH antibody (Millipore, Billerica, Mass.), or anti-VAChT antibody (Phoenix Pharmaceuticals, Inc., Burlingame, Calif.), or anti-NF-L antibody (Millipore), or anti-NF-H antibody (Abcam, Cambridge, Mass.) and then with a secondary biotinylated goat anti-rabbit antibody (Vector Laboratories). Signal was amplified using the Vectastain Elite ABC Kit (Vector Laboratories) and visualized using the Tyramide Signal Amplification kit for TRITC (PerkinElmer, Boston, Mass.).
(§2) For proliferative cell quantification, sections were incubated with a rabbit polyclonal anti-Ki67 (Abcam) and then Alexafluor 568-conjugated goat anti-rabbit antibody (Molecular Probes, Carlsbad, Calif.).
(§3) Human tumors were induced by orthotopic surgical implantations of 1×10^5 PC-3luc cells into six- to eight-week-old Balb/c nu/nu mice. Ten days after cell injection (day 0), the animals were randomized into the different groups and received the appropriate drugs, as indicated. 6OHDA or vehicle was injected at day 0 (100 mg/kg) and day 2 (250 mg/kg), and human recombinant G-CSF treatment was begun on day 4 (Amgen, 250 μg/kg/day, every 12 hours, 8 divided doses, i.p., in 5% dextrose). A second cycle was administered eight weeks after graft and animals were sacrificed three weeks after the last injection of G-CSF (i.e., 11 weeks after graft). In other experiments, 2×10^5 PC-3luc cells were orthotopically injected into nu/nu Adrβ2^tm1Bkk/J+/+ Adrβ3^tm1Lowl/J+/+, nu/nu Adrβ2^tm1Bkk/J−/−, nu/nu Adrβ3^tm1Lowl/J−/− and nu/nu Adrβ2^tm1Bkk/J−/− Adrβ3^tm1Lowl/J−/−. In selected experiments, 2×10^6 LNCaP-luc cells were injected in nu/nu Adrβ2^tm1Bkk/J+/+ Adrβ3^tm1Lowl/J+/+ and nu/nu Adrβ2^tm1Bkk/J−/− Adrβ3^tm1Lowl/J−/− mice. For the transgenic model, one-, two- or five-month-old c-Myc mice were injected with 6OHDA or surgically sympathectomized according to protocols described above and sacrificed 30 days later.
A second cycle was administered at week four and mice were sacrificed one week later (five weeks after graft). For cholinergic experiments using the nu/nu Chrm1^tm1Stl+/+ and nu/nu Chrm1^tm1Stl−/− animals, mice were sacrificed at week six post-graft. For the survival study, grafted mice were treated as described hereinabove from week 4, every two weeks for up to 25 weeks or until death. Disease progression was monitored by bioluminescence scanner. […] One week later, mice received a second round of treatment and were then sacrificed at month four.

[3] = system: prostate cancer in cMyc mice; assay: cMyc transgenic mouse model of prostate cancer (mPIN, invasive cancer zones); format: in vivo; details: G-CSF; 11 weeks of age
Description: To investigate further the activity of G-CSF on tumor development using a genetic mouse model, transgenic mice expressing human cMyc under the ARR2/probasin promoter expressed specifically in the prostate (hereafter cMyc mice) were evaluated. This transgenic model leads to the complete penetrance of mouse prostatic intraepithelial neoplasia (mPIN) from postnatal week 2, progressing to invasive adenocarcinomas between 3 to 6 months of age (FIG. 2m). […] The development of invasive cancer was associated with a broad infiltration of NF-L+ neo-fibers by comparison with control animals (FIG. 2o). Thus, the increased tumor/normal epithelial cell proliferation following G-CSF administration is associated with (i.e., is correlated to) the development of new nerve fibers in the primary tumor. Accordingly, a method of treating cancer in a subject such as a human patient or non-human animal (e.g., non-human mammal) comprises administering a prophylactically or therapeutically effective amount of an inhibitor of NF-L+ neo-fibers. In some embodiments, the method comprises administering a prophylactically or therapeutically effective amount of an inhibitor of G-CSF.
as §3
To ascertain the role of sympathetic innervation in tumor initiation using a genetic model, the effect of chemical or surgical sympathectomy on prostate cancer in cMyc mice was evaluated. For this study, transgenic cMyc mice expressing human c-Myc under the ARR2/probasin promoter expressed specifically in the prostate (AAR2/Pbsn-MYC) were used. This transgenic model leads to the complete penetrance of mouse prostatic intraepithelial neoplasia (mPIN) from postnatal week 2, progressing to invasive adenocarcinomas between 3 to 6 months of age (FIG. 6e). To this end, mice were chemically sympathectomized one month prior to histological analyses.
Disease progression was monitored by bioluminescence scanner. […] Mice were sacrificed at week 10.

[4] = system: healthy prostate; assay: Healthy (tumor-free) prostate: nerve density, epithelial cell proliferation, apoptosis, Chrm1 expression; format: in vivo, mouse
Description: as §1, §2
For apoptotic cell quantification, prostate sections were fixed with 4% paraformaldehyde (PFA) and stained with the Mebstain Apoptosis Kit according to manufacturer's recommendations (MBL International, Woburn, Mass.). Basement membranes were stained with a rat polyclonal anti-α2laminin antibody (Abcam) followed by Alexafluor647-conjugated goat anti-rat antibody (Molecular Probes).
Gene expression levels were analyzed from RNA extracted, using the TRIzol solution (Invitrogen, Carlsbad, Calif.), from PC-3, DU145, LNCaP cell lines or prostates from Balb/c nu/nu mice by quantitative real-time PCR, as described previously (Mendez-Ferrer, Nature, 452:442-447 (2008)).

[5] = system: murine fetal neurons; assay: Neurite outgrowth in fetal neuronal cultures; format: cell-based, mouse; details: G-CSF, cultivation for 6 days
Description: To evaluate neurite growth, cultures were fixed for 10 minutes at −20° C. with 5% glacial acetic acid/95% ethanol and then incubated with an anti-phosphorylated NF-H antibody (Sigma, clone NE14) and a rabbit anti-microtubule-associated protein-2 antibody (Chemicon), followed by Alexafluor488-conjugated goat anti-mouse antibody and Alexafluor568-conjugated goat anti-rabbit antibody (Molecular probes). For G-CSFR staining, mouse fetal neurons in culture were fixed with methanol and then incubated with a rabbit anti-G-CSFR (Santa-Cruz biotechnology, Santa Cruz, Calif.) and Alexafluor568-conjugated goat anti-rabbit antibody (Molecular probes). Neurite outgrowth was analyzed objectively from 40 random fields (field area=0.6 mm^2) per growth condition using the “Neurite Outgrowth” module of Metamorph software (MDSAT).
Neuronal cultures were prepared from embryonic day 15 fetal neocortex as described in Dobrenis et al., J Neurosci. Res. 82(3):306-315 (2005), incorporated herein by reference. Briefly, after enzymatic and mechanical tissue dissociation, cells were plated at 2.5×10^4/cm^2 (day 0) and treated with 20 μg/ml 5-fluoro-2′ deoxyuridine and 50 μg/ml uridine at day 4 for 24 hours to eliminate glial growth. At day 1, cultures were maintained in serum-free medium and incubated with G-CSF at different concentrations (0, 500, 1000 ng/ml) until day 7.

B1: G-CSF: human recombinant granulocyte-colony stimulating factor (Amgen), hematopoietic growth factor (protein, UniProt P09919 31-207, looked up)
Granulocyte …: TPLGPASSLPQSFLLKCLEQVRKIQGDGAALQEKLVSECATYKLCHPEELVLLGHSLGIPWAPLSSCPSQALQLAGCLSQLHSGLFLYQGLLQALEGISPELGPTLDTLQLDVADFATTIWQQMEELGMAPALQPTQGAMPAFASAFQRRAGGVLVASHLQSFLEVSYRVLRHLAQP
proliferation of PC-3luc tumor cells in vitro [1]: could not stimulate | tumor cell proliferation in the primary tumors (Ki67 staining) ([2]; G-CSF 250 μg/kg/day, orthotopic PC-3luc): significantly increased | TH+ fibers against 6OHDA-induced damage ([2]; G-CSF after 6OHDA): protected | development of primary tumors initially sympathectomized with 6OHDA ([2]; G-CSF after 6OHDA): rescued | metastases in 6OHDA-lesioned animals ([2]; G-CSF after 6OHDA): did not induce | invasion of inguinal lymph nodes and metastases ([2]; G-CSF alone, bioluminescence, week 11): induced | size of the primary tumor ([2]; G-CSF treatment): did not affect | infiltration of VAChT+ parasympathetic neo-nerves ([2]; immunofluorescence of tumors): selectively promoted | density of newly formed NF-L+ nerves in prostate tumors ([2]; vs PBS, 11 weeks): significantly higher densities | frequency of mPIN [3]: modest, but significant, effect | number of invasive cancer zones [3]: dramatically increased | proliferation of healthy epithelial cells (anti-Ki67 staining) ([4]; G-CSF treatment): led to proliferation | density of NF-L+ nerve fibers in healthy (tumor-free) prostate ([4]; three weeks after G-CSF, vs PBS control): higher density | Chrm1 expression in the prostate gland ([4]; three weeks after last G-CSF injection, Q-PCR): tended to increase | axonal outgrowth vs vehicle-treated controls [5]: about 2 fold | dendrite outgrowth [5]: unchanged

Reference: patent US20140322242A1, “MATERIALS AND METHODS FOR THE PREVENTION AND TREATMENT OF CANCER” (Icahn School of Medicine at Mount Sinai, priority 2010, published 2014)
